# Results from patent US6207419A, “Thrombin inhibitory agents and methods of using same” (The University of North Carolina at Chapel Hill, priority 1999, dated 2001).
# B1: rHCII-CHis6: Recombinant HCII with six histidine residues added at the carboxyl terminus; SEQ ID NO:5 (protein)
# chain: MKHSLNALLIFLIITSAWGGSKGPLDQLEKGGETAQSADPQWEQLNNKNLSMPLLPADFHKENTVTNDWIPEGEEDDDYLDLEKIFSEDDDYIDIVDSLSVSPTDSDVSAGNILQLFHGKSRIQRLNILNAKFAFNLYRVLKDQVNTFDNIFIAPVGISTAMGMISLGLKGETHEQVHSILHFKDFVNASSKYEITTIHNLFRKLTHRLFRRNFGYTLRSVNDLYIQKQFPILLDFRTKVREYYFAEAQIADFSDPAFISKTNNHIMKLTKGLIKDALENIDPATQMMILNCIYFKGSWVNKFPVEMTHNHNFRLNEREVVKVSMMQTKGNFLAANDQELDCDILQLEYVGGISMLIVVPHKMSGMKTLEAQLTPRVVERWQKSMTNRTREVLLPKFKLEKNYNLVESLKLMGIRMLFDKNGNMAGISDQRIAIDLFKHQGTITVNEEGTQATTVTTVGFMPLSTQVRFTVDRPFLFLIYEHRTSCLLFMGRVANPSRSHHHHHH
# modifications: C-terminal His6 tag
# Experiments:
# chymotrypsin = assay: Chymotrypsin inhibition in the absence of glycosaminoglycan; type: biochemical
# Protocol: (§1) Protease inhibition rates were determined as described previously (Rogers, S. J., Pratt, C. W., Whinna, H. C., and Church, F. C. (1992) J. Biol. Chem. 267(6), 3613-3617; Whinna, H. C., Choi, H. U., Rosenberg, L. C., and Church, F. C. (1993) J. Biol. Chem. 268, 3920-3924; Ciaccia, A. V., Cunningham, E. L., and Church, F. C. (1995) Protein Express. Purific. 6, 806-812; Ciaccia, A. V., Willemze, A. J., and Church, F. C. (1997) J. Biol. Chem. 272(2), 888-893). All assays were performed at room temperature in 96-well microtiter plates previously coated with 2 mg/mL BSA.
# In the absence of glycosaminoglycan, 50-100 nM rHCII (wt, CHis6, CHis5 Pro, L444R, or L444R-CHis6) or rATIII (wt or CHis6) was incubated with 1 nM thrombin, 0.5 nM Factor Xa, 2 nM chymotrypsin, or 5 nM trypsin, in the presence of 1 mg/mL Polybrene (pB) (for thrombin and Factor Xa) and 2 mg/mL BSA in HNPN, pH 7.4.
# (§2) Residual thrombin activity was measured with 150 μM GlyProArg-NA and 1 mg/mL pB in the absence of glycosaminoglycan, 2 mg/mL pB in the presence of heparin and 4 mg/mL in the presence of dermatan sulfate. Residual factor Xa activity was measured with 500 μM Spectrozyme FXa and 2mg/mL pB in the presence or absence of glycosaminoglycan. Residual chymotrypsin activity was measured with 150 μM AlaAlaProPhe-NA and residual trypsin activity was measured with 150 μM GlyProArg-NA. Substrate cleavage was measured by color development at 405 nM on a Vmax Kinetic Microplate Reader (Molecular Devices).
# (§3) Assays were performed at least in triplicate on two or more recombinant protein preparations. All inhibition studies were measured under pseudo-first order conditions where inhibitor [I] is at least ten-fold higher than enzyme (protease) [E], and second-order rate constants were calculated as described previously (Ciaccia, A. V., Cunningham, E. L., and Church, F. C. (1995) Protein Express. Purific. 6, 806-812; Ciaccia, A. V., Willemze, A. J., and Church, F. C. (1997) J. Biol. Chem. 272(2), 888-893).
# [1] = target: T1, plasma purified α-thrombin (Homo sapiens, UniProt P00734); assay: Thrombin inhibition in the presence of glycosaminoglycans (heparin or dermatan sulfate); type: biochemical
# T1 construct: Human α-thrombin, HCII, and ATIII were purified in our laboratory from plasma; from tissue; host or cells: human plasma (purified in the authors' laboratory)
# Protocol: as §1
# In the presence of glycosaminoglycans, 5 nM rHCII (wt, CHis6, CHis5 Pro, L444R, or L444R-CHis6) was incubated with 0.5 nM thrombin and 0-1 mg/mL heparin or 0-4 mg/mL dermatan sulfate or 10 nM rATIII (wt or CHis6) was incubated with 1 nM thrombin or factor Xa and 0-1 mg/mL heparin in the presence of 2 mg/mL BSA in HNPN, pH 7.4.
# as §2, §3
# [2] = Heparin-Sepharose affinity chromatography; type: binding; conditions: NaCl gradient, 20 mM Hepes pH 7.4
# Protocol: 100 μL of each fraction was aliquoted onto a 96-well microtiter plate and ELISA was performed. The peak elution ionic strength was determined by plotting 405 nm color development and NaCl concentration against the fraction number. All samples were run at least in triplicate using two or more protein preparations. Recombinant ATIII samples were run similarly to the HCII samples, except the elution gradient was run from 50 mM to 2 M NaCl.
# α-thrombin = target: T2, α-thrombin (Homo sapiens, UniProt P00734); assay: Effect of hirugen on thrombin inhibition in the absence of glycosaminoglycan; type: biochemical
# T2 construct: Human α-thrombin, HCII, and ATIII were purified in our laboratory from plasma; from tissue; host or cells: human plasma (purified in the authors' laboratory)
# Protocol: as §2, with “GlyProArg-NA.” for “GlyProArg-NA. Substrate cleavage was measured by color development at 405 nM on a Vmax Kinetic Microplate Reader (Molecular Devices).”
# Assays were performed at least in triplicate on two or more recombinant protein preparations.
# thrombin [3] = assay: Plasma-based thrombin inhibition assay; type: biochemical, human; conditions: for Inhibition Rate k2 × 10^8 (M^-1 min^-1), thrombin in plasma: 10 nM serpin
# Protocol: The assay to evaluate rHCII (wt and rHCII-CHis6) in plasma was designed based on previously published methods (Tollefsen, D. M., and Pestka, C. A. (1985) Blood 66(4), 769-774; Griffith, M. J., Carraway, T., White, G. C., and Dombrose, F. A. (1983) Blood 61(1), 111-118). All assays were performed at room temperature in 96-well microtiter plates previously coated with 2 mg/mL BSA. This assay was performed using normal hemostasis reference plasma (REF), human antithrombin III-deficient plasma (DEF), or a 50:50 mixture of these plasmas (REF/DEF). Within the assay, 10 nM rHCII or rHCII-CHis6 was incubated for 15 sec with I nM thrombin and 1 μg/mL heparin or 50 μg/mL dermatan sulfate, in the presence of a 1:100 dilution of plasma. Residual thrombin activity was measured with 300 μM GPA and 2 mg/mL pB. Substrate cleavage was measured by color development at […] on a Vmax Kinetic Microplate Reader. Second order rate constants were measured at least in triplicate on two recombinant protein preparations as described in Example 4.
# thrombin [4] = assay: pH titration of thrombin inhibition; type: biochemical; conditions: pH 6.2 to pH 8; FIG. 6
# Excerpt: Therefore, it is possible that the enhanced thrombin inhibitory activity of rHCII-CHis6 (assayed at pH 7.4) is attributable to a charge on the carboxyl terminal tag. An assay was designed to measure thrombin inhibition by rHCII-CHis6 and wt-rHCII from pH 6.2 to pH 8.
molecule,measurement,setting,value
B1,"Ratio (mutant/wt serpin), chymotrypsin",chymotrypsin,.860
same,"chymotrypsin inhibition compared with wt-rHCII, in words",chymotrypsin,essentially the same
same,"k2 × 10^4 (M^-1 min^-1), chymotrypsin","chymotrypsin; pH 7.4, mean ± S.D.",61.0 ± 16 × 10^4 (M^-1 min^-1)
same,"average dermatan sulfate concentration at which the maximal rate was measured (in parentheses), thrombin","[1]; Thrombin + dermatan sulfate, unit not printed in table (text b157: μg/mL)",500
same,"average heparin concentration at which the maximal rate was measured (in parentheses), thrombin","[1]; Thrombin + heparin, unit not printed in table (text b156: μg/mL)",5
same,dermatan sulfate concentration at maximal rate of thrombin inhibition,[1]; dermatan sulfate,approximately 500 μg/mL
same,maximal rate of thrombin inhibition in the presence of dermatan sulfate,[1]; dermatan sulfate at optimal concentration,1.80±0.50×10^9 M^-1 min^-1
same,decrease in the amount of heparin required for maximal activity versus wt-rHCII,[1]; heparin,~20 fold
same,heparin concentration at maximal rate of thrombin inhibition,[1]; heparin,5 µg/mL
same,maximal rate of thrombin inhibition in the presence of heparin,[1]; heparin at optimal concentration,2.23±0.43×10^9 M^-1 min^-1
same,"Inhibition Rate k2 × 10^8 (M^-1 min^-1), Thrombin + dermatan sulfate","[1]; maximal rate of dermatan sulfate curve, mean ± S.D.",18.0 ± 5.0 × 10^8 (M^-1 min^-1)
same,"Inhibition Rate k2 × 10^8 (M^-1 min^-1), Thrombin + heparin","[1]; maximal rate of heparin curve, mean ± S.D.",22.3 ± 4.3 × 10^8 (M^-1 min^-1)
same,"Ratio (variant/wt), Thrombin + dermatan sulfate",[1]; maximal rates,1.2
same,"Ratio (variant/wt), Thrombin + heparin",[1]; maximal rates,2.4
same,increase in the rate of thrombin inhibition with heparin versus wt-rHCII,[1]; maximal rates with heparin,> 2 fold
same,increase of rate of thrombin inhibition with heparin,[1]; with heparin versus without,"over 100,000 fold"
same,"Heparin-Sepharose [NaCl], peak elution concentration",[2],575 mM
same,reduction of rate of thrombin inhibition by hirugen,"α-thrombin; hirugen 20 μM, absence of glycosaminoglycan",> 50%
same,rate constant of inhibition (k2) in the absence of peptide,"α-thrombin; no hirugen, no control peptide, FIG. 5",310 M⁻¹ s⁻¹
same,increase of thrombin inhibition rate compared to wt-rHCII,"thrombin [3]; 50 μg/mL dermatan sulfate, each of the plasma conditions",1.2-1.3 fold
same,increase of thrombin inhibition rate compared to wt-rHCII,"thrombin [3]; 50:50 mixture of REF/DEF, 1 μg/mL heparin",1.5 fold
same,increase of thrombin inhibition rate compared to wt-rHCII,"thrombin [3]; DEF plasma, 1 μg/mL heparin",4.6 fold
same,"Inhibition Rate k2 × 10^8 (M^-1 min^-1), thrombin in plasma","thrombin [3]; Dermatan Sulfate (50 μg/mL), 50:50 Mixture (REF/DEF) plasma 1:100",7.0 × 10^8 (M^-1 min^-1)
same,"Inhibition Rate k2 × 10^8 (M^-1 min^-1), thrombin in plasma","thrombin [3]; Dermatan Sulfate (50 μg/mL), ATIII Deficient (DEF) plasma 1:100",7.5 × 10^8 (M^-1 min^-1)
same,"Inhibition Rate k2 × 10^8 (M^-1 min^-1), thrombin in plasma","thrombin [3]; Dermatan Sulfate (50 μg/mL), Normal Reference (REF) plasma 1:100",7.2 × 10^8 (M^-1 min^-1)
same,"Inhibition Rate k2 × 10^8 (M^-1 min^-1), thrombin in plasma","thrombin [3]; Heparin (1 μg/mL), 50:50 Mixture (REF/DEF) plasma 1:100",2.8 ± .18 × 10^8 (M^-1 min^-1)
same,"Inhibition Rate k2 × 10^8 (M^-1 min^-1), thrombin in plasma","thrombin [3]; Heparin (1 μg/mL), ATIII Deficient (DEF) plasma 1:100",1.2 ± .10 × 10^8 (M^-1 min^-1)
same,"Inhibition Rate k2 × 10^8 (M^-1 min^-1), thrombin in plasma","thrombin [3]; Heparin (1 μg/mL), Normal Reference (REF) plasma 1:100",3.3 ± .37 × 10^8 (M^-1 min^-1)
same,increase of thrombin inhibition rate compared to wt-rHCII,"thrombin [3]; REF plasma, 1 μg/mL heparin",1.5 fold
same,"inhibition of thrombin over pH titration, in words",thrombin [4],greater than that by wt-rHCII
